In the assay the target is HLA-B*08:01 (Homo sapiens, UniProt P01889). In words: MHC binding assay (UV-ligand exchange, beta2m ELISA). To be noted: MHC class I binding score; binding to HLA-B*08:01 ranged by peptide exchange yield (UV-ligand exchange, β2m ELISA). The text has this:
Candidate peptides for T cell based therapies according to the present invention were further tested for their MHC binding capacity (affinity). The individual peptide-MHC complexes were produced by UV-ligand exchange, where a UV-sensitive peptide is cleaved upon UV-irradiation and exchanged with the peptide of interest as analyzed. Only peptide candidates that can effectively bind and stabilize the peptide-receptive MHC molecules prevent dissociation of the MHC complexes. To determine the yield of the exchange reaction, an ELISA was performed based on the detection of the light chain (β2m) of stabilized MHC complexes. The assay was performed as generally described in Rodenko et al. (Rodenko et al., 2006).
96 well MAXISorp plates (NUNC) were coated over night with 2 ug/ml streptavidin in PBS at room temperature, washed 4× and blocked for 1 h at 37° C. in 2% BSA containing blocking buffer. Refolded HLA-A*02:01/MLA-001 monomers served as standards, covering the range of 15-500 ng/ml. Peptide-MHC monomers of the UV-exchange reaction were diluted 100-fold in blocking buffer. Samples were incubated for 1 h at 37° C., washed four times, incubated with 2 ug/ml HRP conjugated anti-β2m for 1 h at 37° C., washed again and detected with TMB solution that is stopped with […]. Absorption was measured at 450 nm. Candidate peptides that show a high exchange yield (preferably higher than 50%, most preferred higher than 75%) are generally preferred for a generation and production of antibodies or fragments thereof, and/or T cell receptors or fragments thereof, as they show sufficient avidity to the MHC molecules and prevent dissociation of the MHC complexes.
On the technique in general: An ELISA detects its analyte on a solid surface through an enzyme-linked reagent.

On to “186 (DLISPRQPRL; listed as Homo sapiens) [compound 186]”, for which the Peptide exchange result was “++ (20% = ++)”.
The value for “187 (VPYNSVLF; listed as Homo sapiens) [compound 187]” was “++ (20% = ++)”; that for “188 (EIMEKTTL; listed as Homo sapiens) [compound 188]” was “++ (20% = ++)”; that for “189 (APDNVLLTL; listed as Homo sapiens) [compound 189]” was “++ (20% = ++)”.
Next, “190 (ELLNRIYF; listed as Homo sapiens) [compound 190]”: “++ (20% = ++)”.
The value for “191 (RPLKPGEVL; listed as Homo sapiens) [compound 191]” was “++ (20% = ++)”; that for “192 (EEKHFTTL; listed as Homo sapiens) [compound 192]” was “++ (20% = ++)”.
For “193 (LGGLRLTAL; listed as Homo sapiens) [compound 193]”, the Peptide exchange entry is on record as “++ (20% = ++)”.
For “194 (RAIEHVLQV; listed as Homo sapiens) [compound 194]”, the Peptide exchange entry is given as “+++ (50% = +++)”.
The value for “195 (EGNQKSVI; listed as Homo sapiens) [compound 195]” was “++ (20% = ++)”; that for “196 (LDLRQKVL; listed as Homo sapiens) [compound 196]” was “++ (20% = ++)”.
The value for “197 (YKAYPSQL; listed as Homo sapiens) [compound 197]” was “++ (20% = ++)”; that for “198 (FPLTSIIAI; listed as Homo sapiens) [compound 198]” was “+++ (50% = +++)”; that for “199 (IPFIHLPEI; listed as Homo sapiens) [compound 199]” was “++ (20% = ++)”.
The value for “200 (VAAARAVPV; listed as Homo sapiens) [compound 200]” was “++ (20% = ++)”; that for “201 (TASAMQHVL; listed as Homo sapiens) [compound 201]” was “+++ (50% = +++)”; that for “202 (RIPEKASFL; listed as Homo sapiens) [compound 202]” was “++ (20% = ++)”.
For “203 (DVYTQVSAF; listed as Homo sapiens) [compound 203]”, the Peptide exchange entry is “++ (20% = ++)”.
Next, “204 (MSPLLRSI; listed as Homo sapiens) [compound 204]”: “++ (20% = ++)”.
As for “205 (YMQYGFLSM; listed as Homo sapiens) [compound 205]”, the Peptide exchange result is reported as “++ (20% = ++)”.
The value for “206 (MEFPNKFNTL; listed as Homo sapiens) [compound 206]” was “++ (20% = ++)”; that for “207 (LRKRKSPE; listed as Homo sapiens) [compound 207]” was “++ (20% = ++)”.
Next, “208 (LPPPQPLSL; listed as Homo sapiens) [compound 208]”: “++ (20% = ++)”.
Next, “209 (SRFGKFVQL; listed as Homo sapiens) [compound 209]”: “++ (20% = ++)”; “210 (QPNTHQLL; listed as Homo sapiens) [compound 210]”: “++ (20% = ++)”; “211 (DVISKGVSL; listed as Homo sapiens) [compound 211]”: “++ (20% = ++)”.
As to “212 (EEYKFPSL; listed as Homo sapiens) [compound 212]”, the Peptide exchange result was “++ (20% = ++)”.
Next, “213 (FPSLFINQF; listed as Homo sapiens) [compound 213]”: “++ (20% = ++)”; “214 (DAPRHRLL; listed as Homo sapiens) [compound 214]”: “++ (20% = ++)”.
The value for “215 (NPLIEIISI; listed as Homo sapiens) [compound 215]” was “++ (20% = ++)”; that for “216 (EARPPSPAV; listed as Homo sapiens) [compound 216]” was “++ (20% = ++)”; that for “217 (ETIKGHSVRL; listed as Homo sapiens) [compound 217]” was “++ (20% = ++)”.
Next, “218 (DNHPRLVTL; listed as Homo sapiens) [compound 218]”: “+++ (50% = +++)”; “219 (VRNPKILIL; listed as Homo sapiens) [compound 219]”: “++ (20% = ++)”; “220 (LAVRHLSL; listed as Homo sapiens) [compound 220]”: “++ (20% = ++)”.
With “221 (SLKEELLSL; listed as Homo sapiens) [compound 221]”, the Peptide exchange result is on record as “+++ (50% = +++)”.
Next, “222 (AQKAELIAL; listed as Homo sapiens) [compound 222]”: “++ (20% = ++)”.
Turning to “223 (DVSARKLRV; listed as Homo sapiens) [compound 223]”, the Peptide exchange entry is recorded as “++ (20% = ++)”.
Next, “224 (LPYPPQKVV; listed as Homo sapiens) [compound 224]”: “++ (20% = ++)”.
The value for “225 (MPKRAHWGA; listed as Homo sapiens) [compound 225]” was “+++ (50% = +++)”; that for “226 (DIYEVAVSL; listed as Homo sapiens) [compound 226]” was “+++ (50% = +++)”.
The value for “227 (SRFPGMSVL; listed as Homo sapiens) [compound 227]” was “++ (20% = ++)”; that for “228 (TLRAYVLAL; listed as Homo sapiens) [compound 228]” was “+++ (50% = +++)”.
Turning to “229 (DTHTNTYYL; listed as Homo sapiens) [compound 229]”, the Peptide exchange entry is “++ (20% = ++)”.
The value for “230 (DVYFHHVL; listed as Homo sapiens) [compound 230]” was “++ (20% = ++)”; that for “231 (GEKLLRPSL; listed as Homo sapiens) [compound 231]” was “++ (20% = ++)”; that for “232 (KLYIHRVTL; listed as Homo sapiens) [compound 232]” was “++ (20% = ++)”.
Next, “233 (DVKLVFVM; listed as Homo sapiens) [compound 233]”: “++ (20% = ++)”.
The value for “234 (VFRVGISF; listed as Homo sapiens) [compound 234]” was “++ (20% = ++)”; that for “235 (SPNSLVTIL; listed as Homo sapiens) [compound 235]” was “+++ (50% = +++)”; that for “236 (STLKKSLEI; listed as Homo sapiens) [compound 236]” was “++ (20% = ++)”.
In the case of “237 (LPLDSRYVTL; listed as Homo sapiens) [compound 237]”, the Peptide exchange result is “+++ (50% = +++)”.
Next, “238 (IPLAIARL; listed as Homo sapiens) [compound 238]”: “+++ (50% = +++)”; “239 (SEPVMRVTL; listed as Homo sapiens) [compound 239]”: “++ (20% = ++)”; “240 (KVIDRKVEL; listed as Homo sapiens) [compound 240]”: “++ (20% = ++)”.
“241 (NAYEAPSI; listed as Homo sapiens) [compound 241]”: the Peptide exchange entry was “++ (20% = ++)”.
The value for “242 (KPQSLQLVL; listed as Homo sapiens) [compound 242]” was “++ (20% = ++)”.
Take “243 (EGVPPGTVL; listed as Homo sapiens) [compound 243]”: the Peptide exchange entry is given as “+++ (50% = +++)”.
Next, “244 (HALPPYITVL; listed as Homo sapiens) [compound 244]”: “++ (20% = ++)”; “245 (GPRGPSSGHPL; listed as Homo sapiens) [compound 245]”: “++ (20% = ++)”; “246 (RLLQKSKEL; listed as Homo sapiens) [compound 246]”: “++ (20% = ++)”.
The value for “247 (TPEPSVHAL; listed as Homo sapiens) [compound 247]” was “++ (20% = ++)”; that for “248 (SEVNKHETAL; listed as Homo sapiens) [compound 248]” was “++ (20% = ++)”; that for “249 (QQIDRVVEV; listed as Homo sapiens) [compound 249]” was “++ (20% = ++)”.
Next, “250 (AARAPPQAL; listed as Homo sapiens) [compound 250]”: “++ (20% = ++)”; “251 (DAAAFFKSV; listed as Homo sapiens) [compound 251]”: “++ (20% = ++)”.

The values are drawn from US11433099B2, “Immunotherapy with B*08 restricted peptides and combination of peptides against cancers and related methods” (Immatics Biotechnologies GmbH, priority 2018, dated 2022).
